This passage reports IC50 results from patent US20220306688A1 (EMORY UNIVERSITY, published 2022).

The target in the test is T1, KRAS-G12V (Homo sapiens, UniProt P01116 1-189, limits assumed).
T1 construct: also called G12V mutant of KRAS
In words: disruption of the JAK1/KRAS-G12V interaction; the sentence names TR-FRET (FIG. 2B) and GST pull-down (FIG. 2C) and does not say which gave the value; competitor JAK1.

B1: RasKi: 8-mer 603-610 (peptide)
peptide: MDYKDDEG
notes: It was co-expressed or transduced by lentivirus in some cell assays; also called 8-mer WT; 8-mer peptide
B1 returned an IC50 of 0.87 µM.
